Measurements published in US20210356479A1 (BLOODWORKS, published 2021).
Changes are numbered by the printed parent chain. Values belong to the binder of their own block, whether it stands above or below them.

Columns and labels:
[1] = target: T1, human Kell glycoprotein, k form (KEL2) (human, UniProt P23276 1-732); test: flow cytometry on human K-k+ RBCs
T1 construct: whole, on cells; On human k/k or K-k+ RBCs; also called k antigen
T1 sequence (looked up): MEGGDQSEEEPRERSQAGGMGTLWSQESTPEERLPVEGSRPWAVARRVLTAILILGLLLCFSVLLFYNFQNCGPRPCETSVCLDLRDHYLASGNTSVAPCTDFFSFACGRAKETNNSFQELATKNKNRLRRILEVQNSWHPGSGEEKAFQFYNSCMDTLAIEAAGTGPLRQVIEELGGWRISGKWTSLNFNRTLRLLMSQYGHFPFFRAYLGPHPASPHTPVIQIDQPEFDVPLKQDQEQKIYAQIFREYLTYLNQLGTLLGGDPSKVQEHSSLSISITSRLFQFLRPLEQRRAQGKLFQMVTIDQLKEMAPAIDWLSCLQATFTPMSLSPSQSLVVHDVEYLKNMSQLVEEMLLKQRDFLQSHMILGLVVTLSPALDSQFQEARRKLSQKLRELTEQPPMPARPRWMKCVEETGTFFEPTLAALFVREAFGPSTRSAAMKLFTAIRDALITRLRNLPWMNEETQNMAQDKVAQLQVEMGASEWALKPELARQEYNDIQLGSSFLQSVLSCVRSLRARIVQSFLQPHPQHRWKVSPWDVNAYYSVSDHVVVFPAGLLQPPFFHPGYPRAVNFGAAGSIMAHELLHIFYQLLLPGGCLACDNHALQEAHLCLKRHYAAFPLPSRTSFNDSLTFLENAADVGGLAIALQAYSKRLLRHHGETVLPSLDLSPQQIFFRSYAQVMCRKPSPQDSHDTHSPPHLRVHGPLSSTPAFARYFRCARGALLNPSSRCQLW

[2] = target: T2, human Kell glycoprotein, K form (KEL1) (human, UniProt P23276 1-732); test: flow cytometry on human K+k+ RBCs, detected with polyclonal anti-IgG
T2 construct: whole, on cells; On human K/K or K+k+ RBCs and on RBCs of K transgenic mice; also called K antigen; K variant
T2 sequence (looked up): T1 sequence (looked up) with T193M
Description: Flow cytometry consisted of incubating test RBCs with PUMA 1 variants, followed by the anti-IgG being evaluated, followed by a detection reagent. Test RBCs included RBCs from K mice, wild-type mice, and reagent RBCs from humans with the phenotype of (K+k+) or (K−k+). Test RBCs were resuspended in 50 microliters of supernatants of PUMA 1 isoallotypes; in some cases a 1/10 dilution in phosphate buffered saline (PBS) was used. For purified IgG1-IgG4 PUMA 1, the antibodies were diluted in PBS at the indicated concentrations. The tested anti-IgG reagents were used undiluted. Detection reagents consisted of donkey anti-rabbit conjugated to phycoerythrin at a 1/200 dilution (Affymetrix cat #12-4739-81, Santa Clara, Calif.), goat anti-mouse IgM conjugated to allophycocyanin at a 1/100 dilution (BD Biosciences, cat #550826, San Jose, Calif.), and goat anti-mouse Igs conjugated to allophycocyanin at a 1/100 dilution (SouthernBiotech cat #1020-11s, Birmingham, Ala.). All anti-IgG subclass antibodies were conjugated to phycoerythrin, were purchased from SouthernBiotech (catalog numbers 9056-09, 9070-09, 9210-09, 9200-09), and were used at a dilution of 1.200. All incubations were performed for 30 min at room temperature, followed by three washes with PBS. All flow cytometry was performed on an Accuri 4 color cytometer (BD biosciences, San Jose Calif.) and all data was analyzed with Flo-Jo version 10.
To assess the sensitivity of commercially available anti-IgG preparations for different human IgG subclasses bound to RBCs, K+k+ RBCs were first incubated with PUMA 1 of the different human IgG subclasses, followed by incubation with anti-IgG. Treated RBCs were then stained with a fluorescently labeled antibody specific for the species in which the anti-IgG was generated (and non-reactive with human IgG). For each anti-IgG, the same secondary antibody was used to detect binding of the anti-IgG to each human PUMA 1 IgG subclass. To assess relative sensitivity, titrations of each PUMA 1 IgG subclass were carried out and samples were analyzed by flow cytometry using mean fluorescent intensity (MFI) to quantify staining (FIGS. 28A, 28B).

binding result [1]: no binding
binding result [2]: binds
B1: PUMA 1 human IgG3-09 isoallotype (antibody)
heavy: EVQLQQSGPELVKPGASVKMSCKASGYTFTDYYMKWVKQSHGKSLEWIGDLNPNNGDTFYNQKFKGKATLTVDKSSSTAYIQLNSLTSEDSAVYYCAREAGSSFGSSCNYWGQGTTLTVS
light: SVVMTQTPKFLLVSAGDRVTITCKASQTVSKDVAWYQQQPGQSPKLLIYYASNRYTGVPDRFTGSGYGTDFTFTISTVQAEDLAVYFCQQDYSSPYTFGGGTKLEIK
notes: Isoallotype named in CLM-00007; not shown: human IgG3 heavy chain constant region, isoallotype IGHG3*09; human kappa light chain constant region (vector pFUSE2-CLIg-hk)

binding result [1]: no binding
binding result [2]: binds
B2: PUMA 1 human IgG3-12 isoallotype (antibody)
heavy: B1 heavy
light: B1 light
notes: Isoallotype named in CLM-00007; not shown: human IgG3 heavy chain constant region, isoallotype IGHG3*12; human kappa light chain constant region (vector pFUSE2-CLIg-hk)

binding result [1]: no binding
binding result [2]: binds
B3: PUMA 1 human IgG3-17 isoallotype (antibody)
heavy: B1 heavy
light: B1 light
notes: Isoallotype named in CLM-00007; not shown: human IgG3 heavy chain constant region, isoallotype IGHG3*17; human kappa light chain constant region (vector pFUSE2-CLIg-hk)

binding result [1]: no binding
binding result [2]: binds
B4: PUMA 1 human IgG3-14 isoallotype (antibody)
heavy: B1 heavy
light: B1 light
notes: Isoallotype named in CLM-00007; not shown: human IgG3 heavy chain constant region, isoallotype IGHG3*14; human kappa light chain constant region (vector pFUSE2-CLIg-hk)

binding result [1]: no binding
binding result [2]: binds
B5: PUMA 1 human IgG4-02 isoallotype (antibody)
heavy: B1 heavy
light: B1 light
notes: not shown: human IgG4 heavy chain constant region, isoallotype IGHG4*02; human kappa light chain constant region (vector pFUSE2-CLIg-hk)

binding result [1]: no binding
binding result [2]: binds
B6: PUMA 1 human IgG3-15 isoallotype (antibody)
heavy: B1 heavy
light: B1 light
notes: Isoallotype named in CLM-00007; not shown: human IgG3 heavy chain constant region, isoallotype IGHG3*15; human kappa light chain constant region (vector pFUSE2-CLIg-hk)

binding result [1]: no binding
binding result [2]: binds
B7: PUMA 1 human IgG3-18 isoallotype (antibody)
heavy: B1 heavy
light: B1 light
notes: Isoallotype named in CLM-00007; not shown: human IgG3 heavy chain constant region, isoallotype IGHG3*18; human kappa light chain constant region (vector pFUSE2-CLIg-hk)

binding result [1]: no binding
binding result [2]: binds
B8: PUMA 1 human IgG3-19 isoallotype (antibody)
heavy: B1 heavy
light: B1 light
notes: Isoallotype named in CLM-00007; not shown: human IgG3 heavy chain constant region, isoallotype IGHG3*19; human kappa light chain constant region (vector pFUSE2-CLIg-hk)

binding result [1]: no binding
binding result [2]: binds
B9: PUMA 1 human IgG4-03 isoallotype (antibody)
heavy: B1 heavy
light: B1 light
notes: not shown: human IgG4 heavy chain constant region, isoallotype IGHG4*03; human kappa light chain constant region (vector pFUSE2-CLIg-hk)

binding result [1]: no binding
binding result [2]: binds
B10: PUMA 1 human IgG3-16 isoallotype (antibody)
heavy: B1 heavy
light: B1 light
notes: Isoallotype named in CLM-00007; not shown: human IgG3 heavy chain constant region, isoallotype IGHG3*16; human kappa light chain constant region (vector pFUSE2-CLIg-hk)

binding result [1]: no binding
binding result [2]: binds
B11: PUMA 1 human IgG3-13 isoallotype (antibody)
heavy: B1 heavy
light: B1 light
notes: also called PUMA1-IgG3-13; not shown: human kappa light chain constant region (vector pFUSE2-CLIg-hk)

binding result [1]: no binding
binding result [2]: binds
B12: PUMA 1 human IgG3-11 isoallotype (antibody)
heavy: B1 heavy
light: B1 light
notes: Isoallotype named in CLM-00007; not shown: human IgG3 heavy chain constant region, isoallotype IGHG3*11; human kappa light chain constant region (vector pFUSE2-CLIg-hk)
